Sequences and labels used below:
T1: human [1-305]-mouse chimeric EL (human; mouse, UniProt Q9WVG5 306-500)
T1 construct: Heparin extract, captured or detected by an anti-C2-tag antibody; also called human-mouse chimeric EL
T1 sequence: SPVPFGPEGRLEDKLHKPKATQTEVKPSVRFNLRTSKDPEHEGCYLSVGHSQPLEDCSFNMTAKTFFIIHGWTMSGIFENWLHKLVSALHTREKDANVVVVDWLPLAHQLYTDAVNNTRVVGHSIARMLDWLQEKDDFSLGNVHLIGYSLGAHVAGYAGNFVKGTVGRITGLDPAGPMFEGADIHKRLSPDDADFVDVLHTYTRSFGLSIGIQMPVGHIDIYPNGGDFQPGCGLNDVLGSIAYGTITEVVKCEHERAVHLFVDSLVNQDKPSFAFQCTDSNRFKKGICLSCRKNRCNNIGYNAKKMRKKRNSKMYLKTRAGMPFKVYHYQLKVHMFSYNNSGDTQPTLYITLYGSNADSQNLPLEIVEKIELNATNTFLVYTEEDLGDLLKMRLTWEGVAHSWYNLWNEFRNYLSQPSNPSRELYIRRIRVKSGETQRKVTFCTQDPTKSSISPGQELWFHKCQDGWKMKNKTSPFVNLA

B1: h55A1-S5 (antibody, V domains shown)
VH: QVQLVQSGSELKKPGASVKVSCKASGYTFTNYAMNWVRQAPGQGLEWMGWINTYSGVGTYAGDFKGRFVFSLDTSVSTAYLQISSLKAEDTAVYYCARRGFYGRRFFDVWGKGTTVTVSS
VL: DIVLTQSPASLAVSPGQRATITCKASQSVDYDVDSYMHWYQQKPGQPPKLLIYAASNLASGVPARFSGSGSGTDFTLTINPVEANDTANYYCQNTIEDPPTFGGGTKVEIK
notes: humanized
B2: h55A1-S7 (antibody, V domains shown)
VH: B1 VH with M34L, D63E
VL: B1 VL
notes: humanized
B3: h55A1-S6 (antibody, V domains shown)
VH: B1 VH with M34L, D63E
VL: B1 VL with N94Q
notes: humanized
B4: h16B3-F1 (antibody, V domains shown)
VH: EVQLVESGGGLVQPGGSLRLSCAASGFTFSGYTMSWVRQAPGKGLEWVSEISFARDRAFYPDTVKGRFTISRDNSKNTLYLQMNSLRAEDTAVYYCARLGGRNHDYWYFDVWGQGTTVTVSS
VL: DIQMTQSPSSLSASVGDRVTITCRASESVEYYGTSLMQWYQQKPGKAPKLLIYAASNVESGVPSRFSGSGSGTDFTLTISSLQPEDFATYYCQQSWKVPFTFGQGTKLEIK
notes: humanized
B5: h16B3-F2 (antibody, V domains shown)
VH: B4 VH
VL: EIVMTQSPATLSVSPGERATLSCRASESVEYYGTSLMQWYQQKPGQAPRLLIYAASNVESGIPARFSGSGSGTEFTLTISSLQSEDFAVYYCQQSWKVPFTFGQGTKLEIK
notes: humanized
B6: h16B3-F3 (antibody, V domains shown)
VH: B4 VH
VL: B5 VL with M4L, A9G, V13L, A64D, E74D, S81R, Q83E, S84P
notes: humanized
B7: h55A1-F5 (antibody, V domains shown)
VH: QVQLVQSGAEVKKPGASVKVSCKASGYTFTNYGMNWVRQAPGQGLEWMGWINTYSGVPTYAGDFKGRFTFTLDTSTSTAYMELSSLRSEDTAVYYCARRGYYGRRYFDVWGKGTTVTVSS
VL: DIQLTQSPSSLSASVGDRVTITCKASQSVDYDVDSYMHWYQQKPGKAPKLLIYAASNLASGVPSRFSGSGSGTDFTLTISSLQPEDFATYYCQQTIEDPPTFGGGTKVEIK
notes: humanized
B8: h55A1-F1 (antibody, V domains shown)
VH: B1 VH with A33G, G58P, F101Y, F106Y
VL: B7 VL with L77F, F87I
notes: humanized
B9: h55A1-F3 (antibody, V domains shown)
VH: B7 VH with F68V, F70M, L72T, S84R, E89D
VL: B7 VL
notes: humanized

This note sets out measurements from patent publication US20200071424A1 (SHIONOGI, published 2020).

Positions count from the first letter of the chain named.

In the first assay the target is T1, human [1-305]-mouse chimeric EL. The experiment in a line: Biacore; EL captured by anti-C2-tag Ab; bivalent fit. Here is the method: The binding affinities of anti-EL antibodies were measured using Biacore. […] Then, anti-EL humanized antibodies were added and the binding affinities were calculated by bivalent fitting of BIAevaluation software.
For B1, the Kd worked out at 12 nM; the koff (usually the first-order rate constant of dissociation) was 0.00033 s⁻¹; the kon (in general, the second-order rate constant of association) was 27000 M⁻¹ s⁻¹.

B2 registered a Kd of 5.1 nM, an off-rate (koff) of 0.00055 s⁻¹ and a kon of 110000 M⁻¹ s⁻¹.

Regarding B3, the Kd was found to be 1.4 nM, the koff was 6.3e-05 s⁻¹ and the kon is 47000 M⁻¹ s⁻¹.

The molecule B4 returned a Kd of 5.2 nM, a dissociation rate constant (koff) of 0.0002 s⁻¹ and an on-rate (kon) of 38000 M⁻¹ s⁻¹.

As to B5, the Kd came to 3.8 nM, the koff came out at 0.00011 s⁻¹ and the on-rate (kon) was 29000 M⁻¹ s⁻¹.

For the molecule B6, the Kd turned out to be 10 nM, the koff worked out at 0.0002 s⁻¹ and the kon turned out to be 19000 M⁻¹ s⁻¹.

B7 came in with a Kd of 0.11 nM, an off-rate constant (koff) of 1.6e-05 s⁻¹ and a kon of 140000 M⁻¹ s⁻¹.

For the molecule B8, the Kd was determined as 0.084 nM, the koff came out at 1.7e-05 s⁻¹ and the kon came out at 200000 M⁻¹ s⁻¹.

B9 displayed a Kd of 0.29 nM, a koff of 3.3e-05 s⁻¹ and an on-rate (kon) of 110000 M⁻¹ s⁻¹.

The next assay has the same target. The experiment in a line: cell-based or functional assay.
With B1, the “Neutralizing activity IC50” value amounted to 1.3 nM.

As for B2, the “Neutralizing activity IC50” value amounted to 1 nM.

Turning to B3, the “Neutralizing activity IC50” value is 1.2 nM.

As for B4, the “Neutralizing activity IC50” value was determined as 2.3 nM.

As to B5, the “Neutralizing activity IC50” value is 2.4 nM.

B6: the “Neutralizing activity IC50” value came out at 2 nM.

B7: the “Neutralizing activity IC50” value amounted to 1.3 nM.

For B8, the “Neutralizing activity IC50” value turned out to be 1.9 nM.

Consider B9, for which the “Neutralizing activity IC50” value stood at 1.1 nM.
